Measured values from the supplement of paper PMC10126150.
± gives the standard deviation of the averaged measurements.

test system: ATP; test: switch fluorescence ratio, 500 uM ATP over buffer (Cy3 cluster intensity, sum of 5 cycles each) (fold (ratio)); higher = stronger signal-on switching upon ATP binding; sequences stand for … in TCGTCGGCAGCGTCAGATGTGTATAAGAGACAGTTTTTTTTTTTTTTTTTTTTTTTTT…TC; details: aptamer strand: ATP DNA aptamer (quencher-CACCTGGGGGAGTATTGCGGAGGAAGG + anchor), 100 nM annealed; ATP concentration: 500 uM
Outline: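 Clusters carrying Cy3-labelled switching strands on a modified Illumina MiSeq flow-cell were annealed to 100 nM quencher-labelled ATP aptamer and imaged in selection buffer. They were imaged again after 15 min with 500 uM ATP at 22 °C, over five buffer/ATP cycles with NaOH stripping and re-annealing in between. For each cluster, the fluorescence ratio is the summed Cy3 intensity of the target cycles divided by that of the buffer cycles, averaged per switch-domain sequence. Clusters outside 100-1000 RFU were left out.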
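Note: ATP exposure 15 min at 22 °C before imaging.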

Sequence	switch fluorescence ratio
GGGGTTTGCA	0.978 ± 0.046
GTGAGTCAGC	1.06 ± 0.075
ACGGTAAGGA	1.098 ± 0.0091
TATATTTGGT	0.996 ± 0.039
AACCTTTATA	1.01 ± 0.012
CGGCACAATA	1.78 ± 0.041
GGAAGGTA	0.997 ± 0.03
GGCCTTTGCT	1.02 ± 0.041
TCATGCTTGA	0.974 ± 0.032
TTGGGGGACC	0.998 ± 0.025
GAAAGAGGGG	0.989 ± 0.021
GATTGGGTGA	0.972 ± 0.011
TTGCCAAGTG	1.01 ± 0.02
TTTCTTAGCT	1.005 ± 0.0046
TTTGTCGTTT	1.03 ± 0.055
TTCTTAAACA	1.02 ± 0.013
AGCTTGGGCA	1.02 ± 0.0095
GGATTGTCAG	0.9847 ± 0.0024
AAAGGTGTAT	1.02 ± 0.014
ATCGTACAGC	1.13 ± 0.017
TCAGTAGCGG	1.07 ± 0.1
ACGGTGGAGT	1.02 ± 0.054
TCGGGGGTGT	1.02 ± 0.029
GTCTTAGGTC	1 ± 0.035
CGGTGATGGG	1.01 ± 0.031

Sequence	switch fluorescence ratio
ATGGTTTGGC	1 ± 0.049
CCATTCAGGT	1.04 ± 0.065
GGGGCTATCA	0.9712 ± 0.0081
ATTGCCCGCG	1.0228 ± 0.00058
ATATGAAAAT	1.01 ± 0.032
CAATAGTTGT	0.996 ± 0.029
TGGGACACAG	1.004 ± 0.007
CTATGGTTTT	1.014 ± 0.003
ATGCATATCG	1 ± 0.036
ACAATTGTCG	1.028 ± 0.01
AGAATATTGG	0.982 ± 0.046
AGGCATCTGG	0.994 ± 0.011
AAGTGGAAAT	0.9962 ± 0.0019
ATTTTAATTT	1.01 ± 0.015
GTATGAATGG	0.984 ± 0.049
TTAAAGTTAT	0.986 ± 0.061
GCATTTTCAT	0.9766 ± 0.0094
TGAATCGGGG	1.027 ± 0.0014
TTTTATAGGT	0.998 ± 0.017
CGTGGTATCA	0.982 ± 0.077
TTCGTATGTT	1.03 ± 0.05
ATTGATGT	1.0234 ± 0.00096
AGAGGGTTAA	0.988 ± 0.031
GGGGTATCGG	0.9828 ± 0.0085
TGTGTAATTT	0.999 ± 0.012

Sequence	switch fluorescence ratio
GCATGACCAG	0.974 ± 0.026
GTGGCGTAGA	1.02 ± 0.012
TAATGCAATA	1.67 ± 0.054
GAAATTTTTG	0.985 ± 0.029
GGAGTCTAGG	0.994 ± 0.031
AGAACATTGG	0.985 ± 0.013
CTTTACCTAC	1.327 ± 0.0078
TTTTCACTCG	1.006 ± 0.0038
ATGTCTAAAA	0.9887 ± 0.0065
CATAACGGTT	0.98 ± 0.025
CAATGCCGAG	0.9895 ± 0.0045
ATGTAGAGAT	0.97 ± 0.016
CGCTGTGGGA	0.973 ± 0.053
ACGAGAGTTG	0.975 ± 0.021
GGCGTTTTGG	0.982 ± 0.026
GCTTAACGCT	0.999 ± 0.019
TTTAGAATCC	1.03 ± 0.019
ATGTTAGACT	1.021 ± 0.0071
AGCCGTCCCC	0.993 ± 0.02
CGGGGTAAAG	0.9787 ± 0.0032
AAGTTAAGGC	1.02 ± 0.013
TAGAAAAATT	0.993 ± 0.015
TGGGTAGTAA	0.993 ± 0.016
GAAATGGGGA	1 ± 0.017
TTACGCTATT	3.4 ± 2.4

Sequence	switch fluorescence ratio
TATTGAAGGT	1.026 ± 0.0075
TTTTACAGGT	1.01 ± 0.028
TGGGATTCCC	1.01 ± 0.017
ATCTGGGGAA	1.01 ± 0.045
ATGTGCAGGC	0.969 ± 0.026
ATTTTCGGGT	0.9766 ± 0.0023
GGTTAGGAAA	0.998 ± 0.021
GGAGTGTGGG	0.986 ± 0.019
AAGAGGTTAC	0.973 ± 0.049
GCTCAATTTA	0.9689 ± 0.0083
TATGAGATCG	1.03 ± 0.069
TTGTGATAGA	1.06 ± 0.052
CAGTAATAGG	1.07 ± 0.0075
ATTTTGCAGG	0.997 ± 0.046
AGATGAATTC	0.982 ± 0.036
ATAATTCGTA	0.96 ± 0.024
ATGTTTATTG	0.998 ± 0.018
CGCGGCGGTC	1.02 ± 0.014
AACTAAGTGG	0.967 ± 0.017
GTTTGGAGAA	1.01 ± 0.034
CGCATTTAGA	1.04 ± 0.047
TGGTTTTCAG	0.997 ± 0.015
AAACGGGAG	1.032 ± 0.0067
TAGTATAGGC	1.14 ± 0.17
GAAATGGGAG	0.998 ± 0.045

Sequence	switch fluorescence ratio
GCTTGAGTTG	1.0068 ± 0.0004
AAAGAGCAAT	1.79 ± 1.1
TGGAGTGCTT	0.983 ± 0.0022
TCCTTTTGT	1.02 ± 0.068
ATGTGTTCTG	0.931 ± 0.031
TTCGAGTAGT	0.998 ± 0.03
AAAATCGCGT	0.998 ± 0.057
ACTAAGAGTT	1.03 ± 0.056
AAATGTCAAA	0.986 ± 0.042
TGAGAGGGGG	1 ± 0.083
GGTCTAGGTG	1.2586 ± 0.00091
ATTATCCAGC	1.01 ± 0.017
GGGGTCGTTG	0.995 ± 0.017
TGGAAATTTG	1.01 ± 0.036
GGGATGGACC	1 ± 0.018
GACGGGTGTC	0.967 ± 0.012
ATAGGGTCGT	0.998 ± 0.011
CCAAGTTCGG	1.02 ± 0.011
TGATTTATTT	0.9927 ± 0.0048
TTAACTATGG	1.016 ± 0.0066
TCGGGTCTGT	0.979 ± 0.025
GCTGATTTCG	1 ± 0.029
AGAGTGTGGC	1.07 ± 0.039
GTAATATGTG	0.991 ± 0.013
GCGGGGCGAA	1.01 ± 0.012

Sequence	switch fluorescence ratio
GGGAAACTGA	1.04 ± 0.0027
AGTTCTTATT	0.965 ± 0.037
GCATTAAGAC	1.23 ± 0.091
CTGTATGAGT	0.9879 ± 0.0037
GGGCATAACT	1.04 ± 0.044
AAGTTTTCTC	0.951 ± 0.0028
CCAGTGGCTA	1.016 ± 0.0033
GGGTAGTCCG	0.9937 ± 0.007
AGATTAGTTG	1.016 ± 0.0039
GGGAATGGAG	0.976 ± 0.029
TCGTGCTACA	0.97 ± 0.041
TAGAACTTCG	1.014 ± 0.0077
CGGTGCATGA	1.027 ± 0.0092
TCGAATGGGT	1.02 ± 0.013
TGCTTGCGGA	1.02 ± 0.023
ACCAGGTGAT	4.78 ± 0.26
GGGTACGCGA	1.222 ± 0.0097
GGGTTATCAC	0.984 ± 0.0095
TTGATGCAAA	1.01 ± 0.05
ATATTTTCGC	1.04 ± 0.03
ATAGCCTGGT	0.978 ± 0.018
TTTACGACAC	2.02 ± 0.14
TTGACCCGAC	1.4 ± 0.39
AGTTAACATG	0.978 ± 0.016
AAAATGGTGG	1.02 ± 0.013

Sequence	switch fluorescence ratio
CAGAGGAGTT	1.01 ± 0.051
GAGTTAGTGC	0.982 ± 0.039
AGTAGGGCAG	0.9976 ± 0.006
GTGATAAAAT	1.01 ± 0.031
TTGATTTTGT	1.01 ± 0.019
CTTTAATGCC	0.999 ± 0.021
TTTCGAGGGG	1.02 ± 0.054
CGTTTCCCGG	0.992 ± 0.031
CGCGGAGATG	1.01 ± 0.035
CACTTGATGT	0.996 ± 0.023
CGGGGTTCGC	1.95 ± 1.3
GGGTACTTGT	0.999 ± 0.022
TCGTTTAGGT	0.977 ± 0.026
AGGTAGGGGA	1.01 ± 0.041
ACACAGAGAG	1.02 ± 0.033
TATGGTCGC	1.03 ± 0.026
GCGATATGTG	1.013 ± 0.0073
AGTGCGGGGA	0.993 ± 0.04
ATAATTTGCG	0.9814 ± 0.0073
ATCATCGCAG	1.08 ± 0.058
ACGGGTAATG	1.01 ± 0.035
TACTTACGAT	1.37 ± 0.065
AGGTAGGTCC	0.998 ± 0.022
CTTGTTCATG	1 ± 0.017
ACCTGAATTA	1 ± 0.035

Sequence	switch fluorescence ratio
TTGATGAGGA	0.978 ± 0.048
TTGAACTACT	1.03 ± 0.016
GTATCGAGAG	1.01 ± 0.013
CGCCCCTTGC	1.17 ± 0.031
CGCATTTGCT	1.15 ± 0.07
TGTTTCGTGT	0.982 ± 0.032
GTTCAAACGG	0.967 ± 0.018
TGTAAATGTT	1.03 ± 0.04
ATATCTTTCT	1.006 ± 0.0023
AGGATTTATG	0.962 ± 0.021
CGGGGATACT	1.38 ± 0.24
GTGATCCCCG	1.006 ± 0.0041
TCCTGGGGGC	1.02 ± 0.058
GATTTTGTGT	0.98 ± 0.043
GTGTTTTAGC	1.009 ± 0.0098
CTATGAAGGG	0.963 ± 0.034
CTATTCGGGG	0.981 ± 0.01
AGGGGTTTCT	0.984 ± 0.016
TATGAGAGAG	1.03 ± 0.02
CTATAGGGGG	1.007 ± 0.01
GGGAGTAGCC	1.01 ± 0.059
TTTTTGACTT	1.005 ± 0.0092
TTAGCTTTGA	0.992 ± 0.022
GATTTTAGTG	0.969 ± 0.015
GCGAAAGGCG	0.992 ± 0.022
